Results on three molecules are retold here after patent US20160102323, “A LAGLIDADG HOMING ENDONUCLEASE CLEAVING THE C-C CHEMOKINE RECEPTOR TYPE-5 (CCR5) GENE AND USES THEREOF” (CELLECTIS, published 2016).

Holding throughout (assay): flow; yeast surface display titration; unit as printed (uM)
Data set [1] concerns the target T1, CCR5_S08_1B6 I-OnuI variant (artificial (I-OnuI derived)).
T1 chain: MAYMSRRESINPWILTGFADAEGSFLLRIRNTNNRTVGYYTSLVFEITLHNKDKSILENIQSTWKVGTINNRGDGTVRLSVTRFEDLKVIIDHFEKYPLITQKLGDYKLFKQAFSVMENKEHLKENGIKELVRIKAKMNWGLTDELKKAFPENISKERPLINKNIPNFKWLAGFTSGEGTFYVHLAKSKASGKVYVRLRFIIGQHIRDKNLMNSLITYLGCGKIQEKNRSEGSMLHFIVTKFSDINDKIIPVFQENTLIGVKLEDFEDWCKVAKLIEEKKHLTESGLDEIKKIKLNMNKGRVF
The note with it: label: Alexa Fluor 647 / biotin in cleavage assay. The procedure:
(§1) The LHEs containing the engineered DNA recognition interfaces for the CCR5_S02 (SEQ ID NO: 3) and CCR5_S08 (SEQ ID NO: 5) targets were tested for affinity, specificity, and toxicity characteristics. Affinity was tested by independently incubating yeast displaying the CCR5_S02_1F5 variant, (SEQ ID NO: 09 encoding SEQ ID NO: 10), and the CCR5_S08_1B6 variant (SEQ ID NO: 11 encoding SEQ ID NO: 12), with DNA substrates containing their target sequences at various concentrations. See FIG. 4 showing the affinity properties of these two variants relative to the wild-type I-OnuI protein. […] Specificity was tested by analyzing the relative ability of each LHE to cleave target sequences containing each of the three alternate DNA base pairs at each position along the substrate. See FIG. 5 illustrating the specificity profile of the CCR5_S02_1F5 and CCR5_S08_1B6 variants. […] Toxicity was analyzed by in vitro transcribing each LHE into mRNA and transfecting primary human T cells by electroporation, followed by flow cytometry analysis of the survival of the cells relative to transfection with a control mRNA encoding a blue fluorescent protein (BFP). See FIG. 6 showing flow cytometry analysis of primary human T cells after treatment with the CCR5_S02_1F5 and CCR5_S08_1B6 variants.

For another data set, the target named is T2, I-OnuI (wild type) (Ophiostoma novo-ulmi).
T2 chain: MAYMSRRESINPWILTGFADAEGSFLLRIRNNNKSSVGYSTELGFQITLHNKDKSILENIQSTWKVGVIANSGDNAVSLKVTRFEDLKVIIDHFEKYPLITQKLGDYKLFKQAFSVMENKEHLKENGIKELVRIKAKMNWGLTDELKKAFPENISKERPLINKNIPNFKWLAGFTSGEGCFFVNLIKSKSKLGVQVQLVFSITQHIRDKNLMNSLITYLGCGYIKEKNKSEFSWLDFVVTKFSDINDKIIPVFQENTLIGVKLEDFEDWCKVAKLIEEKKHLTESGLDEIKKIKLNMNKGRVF
The note with it: label: fluorescent dye. The procedure: as §1

Data set [2] has as its target T3, CCR5_S02_1F5 I-OnuI variant (artificial (I-OnuI derived)).
T3 chain: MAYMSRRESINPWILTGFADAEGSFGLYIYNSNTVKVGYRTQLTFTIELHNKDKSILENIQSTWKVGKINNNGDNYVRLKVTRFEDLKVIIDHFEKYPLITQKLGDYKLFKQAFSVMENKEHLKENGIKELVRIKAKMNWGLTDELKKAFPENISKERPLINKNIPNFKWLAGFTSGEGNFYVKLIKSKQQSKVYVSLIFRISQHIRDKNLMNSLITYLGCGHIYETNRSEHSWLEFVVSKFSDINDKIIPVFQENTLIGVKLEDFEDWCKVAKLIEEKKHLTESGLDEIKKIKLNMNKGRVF
Conditions: label: Alexa Fluor 647 / biotin in cleavage assay. On the procedure: as §1

B1: CCR5_S08 target (dsDNA)
DNA 1: CTTCCAGGAATTCTTTGGCCTG
DNA 2: CAGGCCAAAGAATTCCTGGAAG
Turning to B1, the Kd (usually a measure of binding affinity in units of concentration) in data set [1] is around 20 µM.

B2: I-OnuI native target (dsDNA)
DNA 1: TTTCCACTTATTCAACCTTTTA
DNA 2: TAAAAGGTTGAATAAGTGGAAA
The molecule B2 showed a Kd with I-OnuI (wild type) of around 80 µM.

B3: CCR5_S02 target (dsDNA)
DNA 1: ATGAAGAAGATTCCAGAGAAGA
DNA 2: TCTTCTCTGGAATCTTCTTCAT
Turning to B3, in data set [2], the dissociation constant (Kd) is around 35 µM.
